The source of these data is publication PMC10978961, “Architecture and activation of human muscle phosphorylase kinase” (Nature Communications, 2024).

The data set deals with the molecule itself. As to the kind of experiment: cryo-EM structure; inactive PhK holoenzyme, dephosphorylated, with 4 mM EGTA and excess calmodulin; 25 mM HEPES pH 6.8, 150 mM NaCl, 2 mM DTT; subunits co-expressed and purified as a complex.

B1: human muscle phosphorylase kinase (PhK) β-subunit (natural protein, UniProt Q93100 1-1093, looked up)
chain: MAGAAGLTAEVSWKVLERRARTKRSGSVYEPLKSINLPRPDNETLWDKLDHYYRIVKSTLLLYQSPTTGLFPTKTCGGDQKAKIQDSLYCAAGAWALALAYRRIDDDKGRTHELEHSAIKCMRGILYCYMRQADKVQQFKQDPRPTTCLHSVFNVHTGDELLSYEEYGHLQINAVSLYLLYLVEMISSGLQIIYNTDEVSFIQNLVFCVERVYRVPDFGVWERGSKYNNGSTELHSSSVGLAKAALEAINGFNLFGNQGCSWSVIFVDLDAHNRNRQTLCSLLPRESRSHNTDAALLPCISYPAFALDDEVLFSQTLDKVVRKLKGKYGFKRFLRDGYRTSLEDPNRCYYKPAEIKLFDGIECEFPIFFLYMMIDGVFRGNPKQVQEYQDLLTPVLHHTTEGYPVVPKYYYVPADFVEYEKNNPGSQKRFPSNCGRDGKLFLWGQALYIIAKLLADELISPKDIDPVQRYVPLKDQRNVSMRFSNQGPLENDLVVHVALIAESQRLQVFLNTYGIQTQTPQQVEPIQIWPQQELVKAYLQLGINEKLGLSGRPDRPIGCLGTSKIYRILGKTVVCYPIIFDLSDFYMSQDVFLLIDDIKNALQFIKQYWKMHGRPLFLVLIREDNIRGSRFNPILDMLAALKKGIIGGVKVHVDRLQTLISGAVVEQLDFLRISDTEELPEFKSFEELEPPKHSKVKRQSSTPSAPELGQQPDVNISEWKDKPTHEILQKLNDCSCLASQAILLGILLKREGPNFITKEGTVSDHIERVYRRAGSQKLWLAVRYGAAFTQKFSSSIAPHITTFLVHGKQVTLGAFGHEEEVISNPLSPRVIQNIIYYKCNTHDEREAVIQQELVIHIGWIISNNPELFSGMLKIRIGWIIHAMEYELQIRGGDKPALDLYQLSPSEVKQLLLDILQPQQNGRCWLNRRQIDGSLNRTPTGFYDRVWQILERTPNGIIVAGKHLPQQPTLSDMTMYEMNFSLLVEDTLGNIDQPQYRQIVVELLMVVSIVLERNPELEFQDKVDLDRLVKEAFNEFQKDQSRLKEIEKQDDMTSFYNTPPLGKRGTCSYLTKAVMNLLLEGEVKPNNDDPCLIS
modifications: farnesyl group on Cys1090 (mass spectrometry; density in the cryo-EM maps); treated with λ-phosphatase
notes: phosphorylase kinase β-subunit, human, full length; domains D1-D5; Forms the central β4 homotetramer of the hexadecamer
For the protein B1, the stoichiometry N (as a rule, a count of units in the complex or per binding partner) is 4.
